The results in this text go back to patent US20190119715.

The labels stand for the following.
T1: α-fructosyl hexapeptide (α-fructosyl-valyl-histidyl-leucyl-threonyl-proryl-glutamic acid) (not fully specified)
T1 chain: VHLTPE

B1: CFP-H38-dh3 (CFP-H37 with R64G, C280Q) (protein)
chain: MTSNRADTRVIVVGGGGTIGSSTALHLVRSGYAPANITVLDTFEIPSAQSAGHDLNKIMGIDHGNKVNLQMSLEARQMWKEDELFQPFFHNTGRMDCEHTPKGIEKLKKLYQKLHDAGAGLEKTHAWLDNEDEILSKMPLLQRDQIQGWKAIWSQDGGWLAAAKAINAIGQFLKERGVKFGFGGAGSFKQPLFDDEGTTCIGVETADGTKYYADKVVLAAGAWSPTLVDLEDQCCSKAWVYAHIQLTPEEAAEYKGVPVVYNGEFGFFFEPDEFGVIKVQDEFPGFSRFKEHQPYGAPSPKRISVPRSHAKHPTDTYPDASEVSIKKAIATFLPRFQDKELFNRALCWCTDTADSTLLMCEHPKWKNFILATGDSGHSFKILPNVGKYVVELIEGRLPEEMAYQWRWRPGGDALKSRRAAPPKDLADMPGWKHDPKL
B2: CFP-H38-dh2 (CFP-H37 with R64G, F269L) (protein)
chain: MTSNRADTRVIVVGGGGTIGSSTALHLVRSGYAPANITVLDTFEIPSAQSAGHDLNKIMGIDHGNKVNLQMSLEARQMWKEDELFQPFFHNTGRMDCEHTPKGIEKLKKLYQKLHDAGAGLEKTHAWLDNEDEILSKMPLLQRDQIQGWKAIWSQDGGWLAAAKAINAIGQFLKERGVKFGFGGAGSFKQPLFDDEGTTCIGVETADGTKYYADKVVLAAGAWSPTLVDLEDQCCSKAWVYAHIQLTPEEAAEYKGVPVVYNGEFGFFLEPDEFGVIKVCDEFPGFSRFKEHQPYGAPSPKRISVPRSHAKHPTDTYPDASEVSIKKAIATFLPRFQDKELFNRALCWCTDTADSTLLMCEHPKWKNFILATGDSGHSFKILPNVGKYVVELIEGRLPEEMAYQWRWRPGGDALKSRRAAPPKDLADMPGWKHDPKL
B3: CFP-H40-dh1 (CFP-H37 with R64G, H99S, L110Y, F269M) (protein)
chain: MTSNRADTRVIVVGGGGTIGSSTALHLVRSGYAPANITVLDTFEIPSAQSAGHDLNKIMGIDHGNKVNLQMSLEARQMWKEDELFQPFFHNTGRMDCESTPKGIEKLKKYYQKLHDAGAGLEKTHAWLDNEDEILSKMPLLQRDQIQGWKAIWSQDGGWLAAAKAINAIGQFLKERGVKFGFGGAGSFKQPLFDDEGTTCIGVETADGTKYYADKVVLAAGAWSPTLVDLEDQCCSKAWVYAHIQLTPEEAAEYKGVPVVYNGEFGFFMEPDEFGVIKVCDEFPGFSRFKEHQPYGAPSPKRISVPRSHAKHPTDTYPDASEVSIKKAIATFLPRFQDKELFNRALCWCTDTADSTLLMCEHPKWKNFILATGDSGHSFKILPNVGKYVVELIEGRLPEEMAYQWRWRPGGDALKSRRAAPPKDLADMPGWKHDPKL
B4: CFP-H38 (CFP-T7-H37-R64G), modified amadoriase derived from Coniochaeta sp. (protein)
chain: MTSNRADTRVIVVGGGGTIGSSTALHLVRSGYAPANITVLDTFEIPSAQSAGHDLNKIMGIDHGNKVNLQMSLEARQMWKEDELFQPFFHNTGRMDCEHTPKGIEKLKKLYQKLHDAGAGLEKTHAWLDNEDEILSKMPLLQRDQIQGWKAIWSQDGGWLAAAKAINAIGQFLKERGVKFGFGGAGSFKQPLFDDEGTTCIGVETADGTKYYADKVVLAAGAWSPTLVDLEDQCCSKAWVYAHIQLTPEEAAEYKGVPVVYNGEFGFFFEPDEFGVIKVCDEFPGFSRFKEHQPYGAPSPKRISVPRSHAKHPTDTYPDASEVSIKKAIATFLPRFQDKELFNRALCWCTDTADSTLLMCEHPKWKNFILATGDSGHSFKILPNVGKYVVELIEGRLPEEMAYQWRWRPGGDALKSRRAAPPKDLADMPGWKHDPKL
B5: CFP-H40-dh4 (CFP-H37 with R64G, H99S, L110Y, F269M, C280Q) (protein)
chain: MTSNRADTRVIVVGGGGTIGSSTALHLVRSGYAPANITVLDTFEIPSAQSAGHDLNKIMGIDHGNKVNLQMSLEARQMWKEDELFQPFFHNTGRMDCESTPKGIEKLKKYYQKLHDAGAGLEKTHAWLDNEDEILSKMPLLQRDQIQGWKAIWSQDGGWLAAAKAINAIGQFLKERGVKFGFGGAGSFKQPLFDDEGTTCIGVETADGTKYYADKVVLAAGAWSPTLVDLEDQCCSKAWVYAHIQLTPEEAAEYKGVPVVYNGEFGFFMEPDEFGVIKVQDEFPGFSRFKEHQPYGAPSPKRISVPRSHAKHPTDTYPDASEVSIKKAIATFLPRFQDKELFNRALCWCTDTADSTLLMCEHPKWKNFILATGDSGHSFKILPNVGKYVVELIEGRLPEEMAYQWRWRPGGDALKSRRAAPPKDLADMPGWKHDPKL
B6: CFP-H40 (CFP-T7-H37-R64G/L110Y/H99S), modified amadoriase derived from Coniochaeta sp. (protein)
chain: MTSNRADTRVIVVGGGGTIGSSTALHLVRSGYAPANITVLDTFEIPSAQSAGHDLNKIMGIDHGNKVNLQMSLEARQMWKEDELFQPFFHNTGRMDCESTPKGIEKLKKYYQKLHDAGAGLEKTHAWLDNEDEILSKMPLLQRDQIQGWKAIWSQDGGWLAAAKAINAIGQFLKERGVKFGFGGAGSFKQPLFDDEGTTCIGVETADGTKYYADKVVLAAGAWSPTLVDLEDQCCSKAWVYAHIQLTPEEAAEYKGVPVVYNGEFGFFFEPDEFGVIKVCDEFPGFSRFKEHQPYGAPSPKRISVPRSHAKHPTDTYPDASEVSIKKAIATFLPRFQDKELFNRALCWCTDTADSTLLMCEHPKWKNFILATGDSGHSFKILPNVGKYVVELIEGRLPEEMAYQWRWRPGGDALKSRRAAPPKDLADMPGWKHDPKL
B7: CFP-H38-dh1 (CFP-H37 with R64G, F269M) (protein)
chain: MTSNRADTRVIVVGGGGTIGSSTALHLVRSGYAPANITVLDTFEIPSAQSAGHDLNKIMGIDHGNKVNLQMSLEARQMWKEDELFQPFFHNTGRMDCEHTPKGIEKLKKLYQKLHDAGAGLEKTHAWLDNEDEILSKMPLLQRDQIQGWKAIWSQDGGWLAAAKAINAIGQFLKERGVKFGFGGAGSFKQPLFDDEGTTCIGVETADGTKYYADKVVLAAGAWSPTLVDLEDQCCSKAWVYAHIQLTPEEAAEYKGVPVVYNGEFGFFMEPDEFGVIKVCDEFPGFSRFKEHQPYGAPSPKRISVPRSHAKHPTDTYPDASEVSIKKAIATFLPRFQDKELFNRALCWCTDTADSTLLMCEHPKWKNFILATGDSGHSFKILPNVGKYVVELIEGRLPEEMAYQWRWRPGGDALKSRRAAPPKDLADMPGWKHDPKL
B8: CFP-H40-dh3 (CFP-H37 with R64G, H99S, L110Y, C280Q) (protein)
chain: MTSNRADTRVIVVGGGGTIGSSTALHLVRSGYAPANITVLDTFEIPSAQSAGHDLNKIMGIDHGNKVNLQMSLEARQMWKEDELFQPFFHNTGRMDCESTPKGIEKLKKYYQKLHDAGAGLEKTHAWLDNEDEILSKMPLLQRDQIQGWKAIWSQDGGWLAAAKAINAIGQFLKERGVKFGFGGAGSFKQPLFDDEGTTCIGVETADGTKYYADKVVLAAGAWSPTLVDLEDQCCSKAWVYAHIQLTPEEAAEYKGVPVVYNGEFGFFFEPDEFGVIKVQDEFPGFSRFKEHQPYGAPSPKRISVPRSHAKHPTDTYPDASEVSIKKAIATFLPRFQDKELFNRALCWCTDTADSTLLMCEHPKWKNFILATGDSGHSFKILPNVGKYVVELIEGRLPEEMAYQWRWRPGGDALKSRRAAPPKDLADMPGWKHDPKL
B9: CFP-H40-dh2 (CFP-H37 with R64G, H99S, L110Y, F269L) (protein)
chain: MTSNRADTRVIVVGGGGTIGSSTALHLVRSGYAPANITVLDTFEIPSAQSAGHDLNKIMGIDHGNKVNLQMSLEARQMWKEDELFQPFFHNTGRMDCESTPKGIEKLKKYYQKLHDAGAGLEKTHAWLDNEDEILSKMPLLQRDQIQGWKAIWSQDGGWLAAAKAINAIGQFLKERGVKFGFGGAGSFKQPLFDDEGTTCIGVETADGTKYYADKVVLAAGAWSPTLVDLEDQCCSKAWVYAHIQLTPEEAAEYKGVPVVYNGEFGFFLEPDEFGVIKVCDEFPGFSRFKEHQPYGAPSPKRISVPRSHAKHPTDTYPDASEVSIKKAIATFLPRFQDKELFNRALCWCTDTADSTLLMCEHPKWKNFILATGDSGHSFKILPNVGKYVVELIEGRLPEEMAYQWRWRPGGDALKSRRAAPPKDLADMPGWKHDPKL

Sequence of hemoglobin A1c (HbA1c) (chain, as listed by the source, chain 1 of 2): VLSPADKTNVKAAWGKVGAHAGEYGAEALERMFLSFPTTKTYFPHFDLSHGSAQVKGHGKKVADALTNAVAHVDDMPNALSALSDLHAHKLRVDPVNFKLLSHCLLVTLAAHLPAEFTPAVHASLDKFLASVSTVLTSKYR
Sequence of hemoglobin A1c (HbA1c) (chain, as listed by the source, chain 2 of 2): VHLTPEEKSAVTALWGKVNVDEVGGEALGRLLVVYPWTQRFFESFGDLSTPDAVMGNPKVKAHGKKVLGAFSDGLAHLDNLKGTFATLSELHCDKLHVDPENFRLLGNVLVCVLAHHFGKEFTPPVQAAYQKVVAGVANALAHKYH

One series has as its target hemoglobin A1c (HbA1c).
Turning to B1, the “current response on a screen-printed carbon electrode at 83, 166, 249 and 332 µg/ml HbA1c” value is “HbA1c was quantified with high accuracy using CFP-H38-dh3”; the “dehydrogenase activity on HbA1c (absorbance at 433 nm, WST-3)” value is listed as “a significant increase was observed in the absorbance, compared with the control. That is, it was confirmed that CFP-H38-dh3 exhibited dehydrogenase activity on HbA1c”.

A further series concerns the target T1, α-fructosyl hexapeptide ….
For B2, the Dehydrogenase activity (%) with 1 mM αF6P as substrate, relative to oxidase activity of CFP-H38 = 100 came out at 8.23%; the OX/DH (%) relative to CFP-H38 = 100 is 30.7%; the OX/DH (ratio of oxidase to dehydrogenase activity, αF6P as substrate) came out at 3.43; the Oxidase activity (%) with 1 mM αF6P as substrate, relative to oxidase activity of CFP-H38 = 100 is 28.3%.
B1: the Dehydrogenase activity (%) with 1 mM αF6P as substrate, relative to oxidase activity of CFP-H38 = 100 was 3.22%; the OX/DH (%) relative to CFP-H38 = 100 was found to be 2.7%; the OX/DH (ratio of oxidase to dehydrogenase activity, αF6P as substrate) worked out at 0.3; the Oxidase activity (%) with 1 mM αF6P as substrate, relative to oxidase activity of CFP-H38 = 100 turned out to be 1%. For the same protein, the “dehydrogenase activity of a 38.4 mg/ml CFP-H38-dh3 solution” value is listed as 38.4 mg/ml (17.8 U/ml) CFP-H38-dh3 solution and the “dehydrogenase activity of an 8.8 mg/ml CFP-H38-dh3 solution” value is 8.8 mg/ml (4.1 U/ml) CFP-H38-dh3 solution.
Take B3: the Dehydrogenase activity (%) with 1 mM αF6P as substrate, relative to oxidase activity of CFP-H40 = 100 stood at 16%; the OX/DH (%) relative to CFP-H40 = 100 is 21%; the OX/DH (ratio of oxidase to dehydrogenase activity, αF6P as substrate) is 1.3; the Oxidase activity (%) with 1 mM αF6P as substrate, relative to oxidase activity of CFP-H40 = 100 is 21%.
As to B4, the Dehydrogenase activity (%) with 1 mM αF6P as substrate, relative to oxidase activity of CFP-H38 = 100 was found to be 8.94%; the OX/DH (%) relative to CFP-H38 = 100 is 100%; the OX/DH (ratio of oxidase to dehydrogenase activity, αF6P as substrate) came out at 11.2; the Oxidase activity (%) with 1 mM αF6P as substrate, relative to oxidase activity of CFP-H38 = 100 came to 100%.
Turning to B5, the Dehydrogenase activity (%) with 1 mM αF6P as substrate, relative to oxidase activity of CFP-H40 = 100 stood at 5.4%; the OX/DH (%) relative to CFP-H40 = 100 came to 5.7%; the OX/DH (ratio of oxidase to dehydrogenase activity, αF6P as substrate) was found to be 0.35; the Oxidase activity (%) with 1 mM αF6P as substrate, relative to oxidase activity of CFP-H40 = 100 came out at 1.9%.
Regarding B6, the Dehydrogenase activity (%) with 1 mM αF6P as substrate, relative to oxidase activity of CFP-H40 = 100 worked out at 16%; the OX/DH (%) relative to CFP-H40 = 100 was 100%; the OX/DH (ratio of oxidase to dehydrogenase activity, αF6P as substrate) turned out to be 6.2; the Oxidase activity (%) with 1 mM αF6P as substrate, relative to oxidase activity of CFP-H40 = 100 came to 100%.
Take B7: the Dehydrogenase activity (%) with 1 mM αF6P as substrate, relative to oxidase activity of CFP-H38 = 100 stood at 24%; the OX/DH (%) relative to CFP-H38 = 100 is 20%; the OX/DH (ratio of oxidase to dehydrogenase activity, αF6P as substrate) was 2.23; the Oxidase activity (%) with 1 mM αF6P as substrate, relative to oxidase activity of CFP-H38 = 100 came out at 53.4%.
On to B8, for which the Dehydrogenase activity (%) with 1 mM αF6P as substrate, relative to oxidase activity of CFP-H40 = 100 was 29%; the OX/DH (%) relative to CFP-H40 = 100 worked out at 7.3%; the OX/DH (ratio of oxidase to dehydrogenase activity, αF6P as substrate) is 0.45; the Oxidase activity (%) with 1 mM αF6P as substrate, relative to oxidase activity of CFP-H40 = 100 was found to be 13%.
As to B9, the Dehydrogenase activity (%) with 1 mM αF6P as substrate, relative to oxidase activity of CFP-H40 = 100 was found to be 5.4%; the OX/DH (%) relative to CFP-H40 = 100 turned out to be 23%; the OX/DH (ratio of oxidase to dehydrogenase activity, αF6P as substrate) was determined as 1.4; the Oxidase activity (%) with 1 mM αF6P as substrate, relative to oxidase activity of CFP-H40 = 100 turned out to be 7.5%.
